The target in assay [1] is T1, Cdc15-eGFP (S. cerevisiae, UniProt P27636 1-974).
T1 sequence (looked up): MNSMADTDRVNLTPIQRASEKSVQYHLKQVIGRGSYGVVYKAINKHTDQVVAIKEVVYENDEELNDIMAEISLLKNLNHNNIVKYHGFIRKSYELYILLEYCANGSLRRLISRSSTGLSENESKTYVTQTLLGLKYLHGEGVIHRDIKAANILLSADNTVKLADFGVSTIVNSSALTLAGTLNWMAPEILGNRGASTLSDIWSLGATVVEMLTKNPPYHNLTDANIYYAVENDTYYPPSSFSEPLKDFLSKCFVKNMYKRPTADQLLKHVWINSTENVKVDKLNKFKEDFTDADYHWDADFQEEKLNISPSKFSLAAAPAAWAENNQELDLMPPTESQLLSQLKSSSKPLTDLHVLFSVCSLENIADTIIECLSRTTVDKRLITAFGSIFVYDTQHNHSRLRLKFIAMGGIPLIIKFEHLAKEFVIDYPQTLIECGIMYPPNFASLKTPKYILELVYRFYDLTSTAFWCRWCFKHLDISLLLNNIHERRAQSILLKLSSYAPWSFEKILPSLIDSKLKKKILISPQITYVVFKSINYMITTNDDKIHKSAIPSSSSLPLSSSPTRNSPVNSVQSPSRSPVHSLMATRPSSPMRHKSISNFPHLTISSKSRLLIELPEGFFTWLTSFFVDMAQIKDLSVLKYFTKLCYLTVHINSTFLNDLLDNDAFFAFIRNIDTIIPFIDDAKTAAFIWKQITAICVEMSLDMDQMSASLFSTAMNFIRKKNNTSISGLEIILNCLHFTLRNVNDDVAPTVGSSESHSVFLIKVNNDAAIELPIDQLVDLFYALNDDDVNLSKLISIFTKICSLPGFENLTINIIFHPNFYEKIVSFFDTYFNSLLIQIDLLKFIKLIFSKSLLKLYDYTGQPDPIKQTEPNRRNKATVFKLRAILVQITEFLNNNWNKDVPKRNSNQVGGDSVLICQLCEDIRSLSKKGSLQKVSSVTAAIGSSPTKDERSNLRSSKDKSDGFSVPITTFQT
Briefly: AlphaScreen or HTRF. Background: Alpha assays give light when donor and acceptor beads are brought close together.

In assay [2] the target is T1, Cdc15-eGFP. The assay is described as follows: AlphaScreen or HTRF. This is another data set of the same source.

Read-outs that look alike come from different tables or passages of the source.

B1: Recombinant Tem1 (unlabeled) (natural protein, S. cerevisiae, UniProt P38987 1-245, looked up)
chain: MATPSTGANNSIPAVRNQVEVQVGLVGDAQVGKTSLMVKYVQNIYDKEYTQTLGVNFLKRKVSIRSTDIIFSIMDLGGQREFINMLPIATVGSSVIIFLFDLTRPETLSSIKEWYRQAYGLNDSAIPILVGTKYDLLIDLDPEYQEQISRTSMKYAQVMNAPLIFCSTAKSINIQKIFKIALAKIFNLTLTIPEINEIGDPLLIYKHLGGQQHRHHNKSQDRKSHNIRKPSSSPSSKAPSPGVNT
For orientation: Kd means a measure of binding affinity in units of concentration. In the case of B1, the Kd in assay [1] was 16 ± 3 nM; in assay [2], 3.9 ± 0.8 nM.

Values taken from PMC11551315 (Proceedings of the National Academy of Sciences of the …, 2024).
